Laboratory results reported in the supplement of paper PMC7877785.
± gives the uncertainty stated by the source.

Assay: self-splicing fitness, log relative to wild type (ln ratio); higher = more splicing; Tetrahymena group I intron in knt gene, E. coli kanamycin selection, DiMSum; sequences stand for … in CUCUCU…GGAGGGAAAAGUUAUCAGGCAUGCACCUGGUAGCUAGUCUUUAAACCAAUAGAUUGCAUCGGUUUAAAAGGCAAGACCGUCAAAUUGCGGGAAAGGGGUCAACAGCCGUUCAGUACCAAGUCUCAGGGGAAACUUUGAGAUGGCCUUGCAAAGGGUAUGGUAAUAAGCUGACGGACAUGGUCCUAACCACGCAGCCAAGUCCUAAGUCAACAGAUCUUCUGUUGAUAUGGAUGCAGUUCACAGACUAAAUGUCGGUCGGGGAAGAUGUAUUCUUCUCAUAAGAUAUAGUCGGACCUCUCCUUAAUGGGAGCUAGCGGAUGAAGUGAUGCAACACUGGAGCCGCUGGGAACUAAUUUGUAUGCGAAAGUAUAUUGAUUAGUUUUGGAGUACUCGUGGUCG
Summary of the method: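 A randomised library covering all eight P1ex-region intron nucleotides was built with the intron in the knt kanamycin-resistance gene on pET-22b(+) and held in E. coli BL21(DE3). Cells were grown overnight at 37°C or 30°C on LB agar, with or without 25 μg/mL kanamycin, plus 100 μg/mL carbenicillin, 50 μM IPTG and 0.2% rhamnose, and pooled colonies were amplicon-sequenced on an Illumina HiSeq 2500. DiMSum fitness is the error-weighted combination of wild-type-normalised replicate fold changes, kanamycin versus none.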

Sequence | self-splicing fitness (ln) (30 °C) | self-splicing fitness (ln) (37 °C)
CUAGAGCAAUAUUACGAUUU | -3.17 ± 0.2 | -1.48 ± 0.25
CUAGAGCAAUAUUACGCAAU | -3.77 ± 0.22 | -3.08 ± 0.34
CUAGAGCAAUAUUACGCAGC | -3.55 ± 0.38 | -3.32 ± 0.46
CUAGAGCAAUAUUACGCAUG | -0.244 ± 0.092 | 0.532 ± 0.1
CUAGAGCAAUAUUACGCGGA |  | -1.33 ± 0.36
CUAGAGCAAUAUUACGCGUU | -4.14 ± 0.24 | -2.46 ± 0.27
CUAGAGCAAUAUUACGGAGC |  | -3.62 ± 0.34
CUAGAGCAAUAUUACGGGAA | -4.25 ± 0.35 | -2.45 ± 0.45
CUAGAGCAAUAUUACGGGAC | -2.5 ± 0.16 | -1.05 ± 0.18
CUAGAGCAAUAUUACGGUUG | -0.207 ± 0.056 | -0.329 ± 0.074
CUAGAGCAAUAUUACGGUUU | -4.03 ± 0.31 | 
CUAGAGCAAUAUUACGUACU | -3.83 ± 0.3 | -3.27 ± 0.43
CUAGAGCAAUAUUACGUCGA | -3.94 ± 0.28 | -2.34 ± 0.28
CUAGAGCAAUAUUACGUGGG | -0.857 ± 0.13 | -0.906 ± 0.16
CUAGAGCAAUAUUACGUUAC | -2.88 ± 0.27 | 
CUAGAGCAAUAUUACGUUCG | -1.1 ± 0.047 | -0.578 ± 0.076
CUAUAGCAAUAUUACGACUA | -1.87 ± 0.47 | 
CUAUAGCAAUAUUACGAGAU | -3.91 ± 0.42 | 0.449 ± 0.18
CUAUAGCAAUAUUACGAGGC | -3.06 ± 0.35 | 
CUAUAGCAAUAUUACGAUGG | -3.44 ± 0.24 | -1.18 ± 0.14

Sequence | self-splicing fitness (ln) (30 °C) | self-splicing fitness (ln) (37 °C)
CUAUAGCAAUAUUACGCCAC |  | -1.21 ± 0.42
CUAUAGCAAUAUUACGCCUC | -3.66 ± 0.32 | -3.15 ± 0.37
CUAUAGCAAUAUUACGCGAC | -1.89 ± 0.18 | 0.00503 ± 0.2
CUAUAGCAAUAUUACGCGGU | -3.7 ± 0.24 | -2.29 ± 0.22
CUAUAGCAAUAUUACGCGUU | -4.27 ± 0.42 | -2.18 ± 0.3
CUAUAGCAAUAUUACGCUAU | -2.77 ± 0.15 | -1.72 ± 0.27
CUAUAGCAAUAUUACGGAAG | -1.87 ± 0.12 | -0.957 ± 0.13
CUAUAGCAAUAUUACGGGGG | -2.16 ± 0.23 | -3.09 ± 0.43
CUAUAGCAAUAUUACGGUCC | -3.69 ± 0.4 | -2.56 ± 0.46
CUAUAGCAAUAUUACGGUUA | -2.91 ± 0.2 | -2.84 ± 0.19
CUAUAGCAAUAUUACGUAUA | -3.27 ± 0.42 | -2.56 ± 0.37
CUAUAGCAAUAUUACGUCCG | -0.823 ± 0.11 | 0.0188 ± 0.13
CUAUAGCAAUAUUACGUCUG | 0.043 ± 0.088 | -0.099 ± 0.1
CUAUAGCAAUAUUACGUGGG | -3.25 ± 0.19 | -2.16 ± 0.15
CUCAAGCAAUAUUACGAAAA | -3.12 ± 0.28 | -2.65 ± 0.28
CUCAAGCAAUAUUACGAACC | -2.43 ± 0.39 | -2.38 ± 0.28
CUCAAGCAAUAUUACGAAGA | -3.8 ± 0.25 | -2.55 ± 0.2
CUCAAGCAAUAUUACGACAU | -3.206 ± 0.018 | -1.9 ± 0.034
CUCAAGCAAUAUUACGAUCU | -3.53 ± 0.26 | -2.59 ± 0.24
CUCAAGCAAUAUUACGCACG | -2.51 ± 0.14 | -0.724 ± 0.16
